Source: US20120135912A1 (PERSEID THERAPEUTICS, published 2012)

How the values were obtained:
[1] = target: T1, human VLA4-Fc (alpha4-Fc/beta1-Fc heterodimer) (human); experiment: SPR (BIACORE), VLA4-Fc captured by anti-human IgG, 1 mM MnCl2, 1:1 Langmuir; standard BIACORE assay, first preparation (Table 5A); activated VLA4 (Mn2+)
T1 construct: Soluble heterodimer from CHO cells, Protein A purified; also called VLA-Fc
Description: All BIACORE analyses were performed on a BIACORE 2000 system or BIACORE 3000 system (GE Healthcare) at room temperature (RT, 25° C.), HBS-P buffer (10 mM Hepes (pH 7.4), 150 mM NaCl, 0.005% surfactant P20) supplemented with 1 mM MnCl₂ (HBS-P-Mn) was used as the flow buffer for all experiments except where indicated.
The kinetic 2D-VCAM-1 assay measures binding kinetics of a dimeric ligand (e.g., VLA-Fc fusion protein or LPAM-1-Fc fusion protein) coated to sensor chips and monomeric analyte (e.g., 2D-VCAM-1 variant polypeptides) in the mobile phase. Goat anti-human IgG antibody (Jackson ImmunoResearch, Catalog No. 105-005-098) was immobilized on CM-5 sensor chips (GE Healthcare, Catalog No. BR-1000-14) according to the manufacturer's protocol. Antibody was diluted to 30 μg/ml in immobilization buffer (10 mM sodium acetate, pH 5.0 (GE Healthcare, Catalog No. BR-1003-51)). […] Un-reacted sites were quenched with 35 μl of 1 M ethanolamine-HCl pH 8.5 (GE Healthcare, Catalog No. BR-1000-50). This procedure typically yielded 15,000 response units (RU) of coupled antibody. VLA4-Fc or LPAM-1-Fc, prepared as described in Examples 3 and 4, respectively, were bound to antibody-coated sensor chips by injection of 20 μl of ligand solution (20 μg/ml protein in HBS-P-Mn buffer at a flow rate of 10 μl/min). Ligand capture levels were typically 200-300 RU. […]

[2] = target: T2, human VLA4 (integrin alpha4beta1) on the surface of U937 cells (human, UniProt P13612 34-1032; P05556 21-798); experiment: static cell adhesion assay: U937 cells on immobilized 7D-VCAM-1 in the presence of the soluble polypeptide; blocked ligand: immobilized 7D-VCAM-1 (Example 13)
T2 construct: whole, on cells; Endogenous VLA4 of U937 cells; assay buffer held 1 mM each of CaCl2, MgCl2 and MnCl2; also called cell-surface human VLA4
Description: Prior to assaying, the U937 cells were re-suspended in labeling buffer (RPMI 1640 culture media without phenol red, 10% FBS; Invitrogen), then labeled with 0.5 μg/ml Calcein-AM at 37° C. for 30 minutes on a rotator. Subsequently, the cells were washed three times with labeling buffer then resuspended at 5×10^6 cells/ml in assay buffer (HEPES CaMgMn buffer: 50 mM HEPES, 150 mM NaCl, 1 mM CaCl₂, 1 mM MgCl₂, 1 mM MnCl2 pH 7.4).
The test compounds (i.e., the 2D-VCAM-1 variant polypeptides) were diluted in dilution buffer and added to VCAM-1-coated plates. […] Plates were spun down at 280×g for 5 minutes with assay buffer decanted by inversion before measuring fluorescence intensity (excitation=485 nm, emission=530 nm) with LJL Analyst HT 96.384 (Molecular Devices, Sunnyvale, Calif.).
FIG. 5 is a graph showing the cell adhesion index for anti-VLA4-antibody (used as a positive control for maximal inhibition of cell adherence), dilution buffer alone (“no treatment”, a control to show maximal cell adherence to the immobilized VCAM-1), 2D-VCAM-1 valiant Clone 46 (SEQ ID NO:12), Q38L-2D-VCAM-1 polypeptide (SEQ ID NO:10), and human 2D-VCAM-1 (SEQ ID NO:2). The cell adhesion index was calculated as (fluorescence intensity, VCAM-coated well)/(fluorescence intensity, non-CAM-1-coated well). […]

T2 sequence (P13612 34-1032, chain 1 of 2): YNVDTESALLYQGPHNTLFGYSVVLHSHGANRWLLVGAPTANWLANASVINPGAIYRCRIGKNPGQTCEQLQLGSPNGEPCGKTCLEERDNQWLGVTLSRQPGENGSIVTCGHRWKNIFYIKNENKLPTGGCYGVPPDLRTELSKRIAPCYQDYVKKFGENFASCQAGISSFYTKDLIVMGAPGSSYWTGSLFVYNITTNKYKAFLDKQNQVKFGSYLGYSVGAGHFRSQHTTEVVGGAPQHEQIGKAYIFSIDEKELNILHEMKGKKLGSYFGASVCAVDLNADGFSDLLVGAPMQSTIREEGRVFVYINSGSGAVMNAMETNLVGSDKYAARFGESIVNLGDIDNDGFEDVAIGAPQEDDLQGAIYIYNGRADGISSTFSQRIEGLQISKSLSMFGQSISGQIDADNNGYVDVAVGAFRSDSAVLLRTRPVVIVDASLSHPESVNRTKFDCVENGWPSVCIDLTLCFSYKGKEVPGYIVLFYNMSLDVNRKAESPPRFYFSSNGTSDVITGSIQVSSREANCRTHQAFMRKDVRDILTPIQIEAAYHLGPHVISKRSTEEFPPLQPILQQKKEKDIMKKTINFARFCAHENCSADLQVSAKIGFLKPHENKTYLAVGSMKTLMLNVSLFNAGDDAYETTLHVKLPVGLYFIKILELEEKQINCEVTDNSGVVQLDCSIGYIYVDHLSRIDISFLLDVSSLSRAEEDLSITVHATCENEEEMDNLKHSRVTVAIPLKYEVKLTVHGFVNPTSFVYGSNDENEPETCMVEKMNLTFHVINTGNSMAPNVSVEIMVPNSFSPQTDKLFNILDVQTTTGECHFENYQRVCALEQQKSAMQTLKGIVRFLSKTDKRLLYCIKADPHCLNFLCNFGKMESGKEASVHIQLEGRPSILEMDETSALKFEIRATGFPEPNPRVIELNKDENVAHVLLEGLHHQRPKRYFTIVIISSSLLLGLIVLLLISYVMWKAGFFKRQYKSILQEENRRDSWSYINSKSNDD
T2 sequence (P05556 21-798, chain 2 of 2): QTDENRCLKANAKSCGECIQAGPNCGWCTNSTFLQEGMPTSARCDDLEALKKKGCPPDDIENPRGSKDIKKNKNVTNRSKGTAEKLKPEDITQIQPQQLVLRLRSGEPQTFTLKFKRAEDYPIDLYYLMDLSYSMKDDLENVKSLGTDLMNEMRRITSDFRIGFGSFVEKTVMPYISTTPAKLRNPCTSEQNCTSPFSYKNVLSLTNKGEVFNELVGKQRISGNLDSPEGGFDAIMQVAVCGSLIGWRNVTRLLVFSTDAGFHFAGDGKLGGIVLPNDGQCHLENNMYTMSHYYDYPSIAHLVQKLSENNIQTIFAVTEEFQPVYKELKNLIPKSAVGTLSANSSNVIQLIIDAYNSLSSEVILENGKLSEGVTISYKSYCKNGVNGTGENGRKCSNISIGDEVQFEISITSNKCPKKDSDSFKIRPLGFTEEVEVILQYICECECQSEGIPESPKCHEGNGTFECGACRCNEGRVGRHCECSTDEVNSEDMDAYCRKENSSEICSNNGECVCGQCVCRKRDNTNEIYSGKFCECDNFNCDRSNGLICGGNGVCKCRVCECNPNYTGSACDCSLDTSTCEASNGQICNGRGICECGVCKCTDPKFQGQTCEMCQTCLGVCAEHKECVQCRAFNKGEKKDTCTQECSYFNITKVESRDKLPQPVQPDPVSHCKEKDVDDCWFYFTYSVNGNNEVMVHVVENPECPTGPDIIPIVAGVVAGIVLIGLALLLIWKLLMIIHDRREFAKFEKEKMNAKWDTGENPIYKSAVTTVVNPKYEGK
T1 sequence (chain, as listed by the source limits assumed, form in doubt, chain 1 of 2): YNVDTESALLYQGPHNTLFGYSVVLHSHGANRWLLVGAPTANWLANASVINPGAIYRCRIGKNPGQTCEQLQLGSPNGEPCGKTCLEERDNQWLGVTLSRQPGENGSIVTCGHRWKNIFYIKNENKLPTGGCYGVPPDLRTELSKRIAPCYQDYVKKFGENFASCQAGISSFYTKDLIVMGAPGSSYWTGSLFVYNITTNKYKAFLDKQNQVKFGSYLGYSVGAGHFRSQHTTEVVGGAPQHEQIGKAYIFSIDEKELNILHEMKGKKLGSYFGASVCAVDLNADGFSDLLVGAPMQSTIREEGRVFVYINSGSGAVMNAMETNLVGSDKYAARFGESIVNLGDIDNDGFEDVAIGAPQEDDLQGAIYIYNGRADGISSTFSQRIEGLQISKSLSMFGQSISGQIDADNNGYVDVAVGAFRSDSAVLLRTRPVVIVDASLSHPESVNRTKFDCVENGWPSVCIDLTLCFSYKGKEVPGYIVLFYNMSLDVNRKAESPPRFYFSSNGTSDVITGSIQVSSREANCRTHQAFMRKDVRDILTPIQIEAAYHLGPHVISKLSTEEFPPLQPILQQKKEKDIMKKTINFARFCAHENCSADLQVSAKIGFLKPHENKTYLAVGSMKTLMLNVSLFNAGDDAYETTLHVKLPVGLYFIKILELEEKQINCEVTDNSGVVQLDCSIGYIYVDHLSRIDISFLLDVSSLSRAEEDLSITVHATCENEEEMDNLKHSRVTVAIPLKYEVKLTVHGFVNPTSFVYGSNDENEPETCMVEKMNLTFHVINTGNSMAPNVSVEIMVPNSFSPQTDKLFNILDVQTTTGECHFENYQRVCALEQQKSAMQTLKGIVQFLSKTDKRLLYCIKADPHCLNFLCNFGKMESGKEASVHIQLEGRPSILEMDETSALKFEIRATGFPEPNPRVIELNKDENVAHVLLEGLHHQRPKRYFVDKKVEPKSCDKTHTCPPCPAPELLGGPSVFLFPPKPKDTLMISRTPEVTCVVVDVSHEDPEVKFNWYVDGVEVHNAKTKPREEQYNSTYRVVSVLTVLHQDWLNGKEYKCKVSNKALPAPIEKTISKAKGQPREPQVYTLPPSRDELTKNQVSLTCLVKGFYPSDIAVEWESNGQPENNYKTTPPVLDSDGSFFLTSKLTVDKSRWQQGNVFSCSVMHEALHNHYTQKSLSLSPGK
T1 sequence (chain, as listed by the source limits assumed, form in doubt, chain 2 of 2): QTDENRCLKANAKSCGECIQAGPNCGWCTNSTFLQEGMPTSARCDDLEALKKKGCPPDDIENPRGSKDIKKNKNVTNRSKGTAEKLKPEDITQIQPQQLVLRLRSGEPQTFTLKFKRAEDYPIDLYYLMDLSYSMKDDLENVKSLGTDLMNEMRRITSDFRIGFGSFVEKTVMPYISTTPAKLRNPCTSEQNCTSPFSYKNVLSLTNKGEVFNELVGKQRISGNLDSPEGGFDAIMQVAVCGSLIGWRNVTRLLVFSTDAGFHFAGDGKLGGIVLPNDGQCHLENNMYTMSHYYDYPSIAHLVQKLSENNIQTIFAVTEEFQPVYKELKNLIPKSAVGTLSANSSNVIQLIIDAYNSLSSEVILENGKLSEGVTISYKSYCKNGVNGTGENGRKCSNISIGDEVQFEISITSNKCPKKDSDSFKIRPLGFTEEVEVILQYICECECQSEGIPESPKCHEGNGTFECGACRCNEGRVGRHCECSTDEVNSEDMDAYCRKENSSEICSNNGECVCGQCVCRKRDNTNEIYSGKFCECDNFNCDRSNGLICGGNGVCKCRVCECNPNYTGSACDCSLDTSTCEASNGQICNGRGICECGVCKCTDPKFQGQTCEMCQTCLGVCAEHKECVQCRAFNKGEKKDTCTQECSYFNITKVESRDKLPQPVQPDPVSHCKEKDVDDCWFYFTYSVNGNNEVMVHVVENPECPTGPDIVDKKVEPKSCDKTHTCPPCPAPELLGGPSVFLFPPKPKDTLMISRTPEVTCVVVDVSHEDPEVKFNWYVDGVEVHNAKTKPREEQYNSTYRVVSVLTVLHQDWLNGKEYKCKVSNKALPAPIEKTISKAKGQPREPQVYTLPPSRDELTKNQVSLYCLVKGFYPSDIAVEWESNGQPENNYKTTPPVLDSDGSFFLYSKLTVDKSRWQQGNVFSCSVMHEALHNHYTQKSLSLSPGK

| Kd [1] | binding result [2] | Binder |
| --- | --- | --- |
| 0.0497 nM |  | 2D-VCAM-1 variant Clone 146 (ligand, not shown: small tags and cut ends) FKIETTPESRYLAQIGDSVSLTCSTTGCESPLFFWRPLLDSPLNGKVTNEGTTSTLTMNPVSFGNEHSYLCTARCESRSLEKGIQVEIYSFPKDPEIHLSGPLEAGKPITVKCSVADVYPFDRLEIDLLKGDHLMKSQEFLEDADRKSLETKSLEVTFTPVIEDIGKVLVCRAKLHIDEMDSVPTVRQAVKELQVYISP |
|  | binds | Q38L-2D-VCAM-1 (ligand, also called Q38L 2D-VCAM-1 polypeptide; not shown: His tag) FKIETTPESRYLAQIGDSVSLTCSTTGCESPFFSWRTLIDSPLNGKVTNEGTTSTLTMNPVSFGNEHSYLCTATCESRKLEKGIQVEIYSFPKDPEIHLSGPLEAGKPITVKCSVADVYPFDRLEIDLLKGDHLMKSQEFLEDADRKSLETKSLEVTFTPVIEDIGKVLVCRAKLHIDEMDSVPTVRQAVKELQVYISP |
